Here are results for one substance from publication PMC12622487.

The series has as its target Cys32 (UniProt position 32, FSATWCGPCKM). Particulars: Reduced (free thiol) form is presumed; not explicitly stated for the pKa determination.

In the case of “Thioredoxin-1 (native recombinant human TRX, rhTRX) (Homo sapiens)”, the pKa (as a rule, the pH at which an ionisable group is half protonated) came to 6.3.
